Reference: publication PMC3323732 (Journal of Molecular Biology, 2011)
Positions count from the first letter of the chain named. Names and notes keep the numbering of the source.

T1: myocilin C-terminal olfactomedin domain (myoc-OLF), cleaved from MBP, wild type (human, UniProt Q99972 228-504)
T1 sequence (looked up): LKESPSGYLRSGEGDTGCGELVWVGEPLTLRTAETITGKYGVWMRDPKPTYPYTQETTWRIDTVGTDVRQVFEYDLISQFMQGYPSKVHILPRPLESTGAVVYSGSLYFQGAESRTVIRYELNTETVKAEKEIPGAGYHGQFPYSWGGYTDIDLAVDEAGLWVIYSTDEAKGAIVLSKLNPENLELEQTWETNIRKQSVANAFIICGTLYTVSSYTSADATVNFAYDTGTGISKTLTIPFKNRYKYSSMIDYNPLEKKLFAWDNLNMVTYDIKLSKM

B1: MBP-OLF(245-455) (domain or fragment, human, UniProt Q99972 245-455, looked up)
chain: CGELVWVGEPLTLRTAETITGKYGVWMRDPKPTYPYTQETTWRIDTVGTDVRQVFEYDLISQFMQGYPSKVHILPRPLESTGAVVYSGSLYFQGAESRTVIRYELNTETVKAEKEIPGAGYHGQFPYSWGGYTDIDLAVDEAGLWVIYSTDEAKGAIVLSKLNPENLELEQTWETNIRKQSVANAFIICGTLYTVSSYTSADATVNFAYDT
B2: MBP-OLF(245-504) (domain or fragment, human, UniProt Q99972 245-504, looked up)
chain: CGELVWVGEPLTLRTAETITGKYGVWMRDPKPTYPYTQETTWRIDTVGTDVRQVFEYDLISQFMQGYPSKVHILPRPLESTGAVVYSGSLYFQGAESRTVIRYELNTETVKAEKEIPGAGYHGQFPYSWGGYTDIDLAVDEAGLWVIYSTDEAKGAIVLSKLNPENLELEQTWETNIRKQSVANAFIICGTLYTVSSYTSADATVNFAYDTGTGISKTLTIPFKNRYKYSSMIDYNPLEKKLFAWDNLNMVTYDIKLSKM
B3: myoc-OLF(Y437H), cleaved from MBP (domain or fragment, human, UniProt Q99972 228-504, looked up)
chain: T1 sequence (looked up) with Y210H
B4: MBP-OLF(P370L) (domain or fragment, human, UniProt Q99972 228-504, looked up)
chain: T1 sequence (looked up) with P143L
B5: MBP-OLF(Y437H) (domain or fragment, human, UniProt Q99972 228-504, looked up)
chain: T1 sequence (looked up) with Y210H

How the values were obtained:
SEC = biological target: the molecule itself; assay: SEC
[1] = biological target: the molecule itself; assay: thioflavin T fluorescence of fibril formation
[2] = biological target: T1, myocilin C-terminal olfactomedin domain …; assay: seeded fibril formation followed by thioflavin T fluorescence

Binder | binding result (SEC) | binding result [1] | binding result [2]
B1 | binds |  | 
B2 | binds |  | 
B3 |  | binds | binds
B4 | binds |  | 
B5 | binds |  | 
